Experiments:
MS2 coat protein [1] = test: apparent KD of MS2 coat protein, switch ON state; designed switch direction (-1 OFF switch, 1 ON switch): 1; higher = weaker reporter binding; details: FMN input: 0 or 200 uM; Eterna round: R93 (includes R88 designs)
How it was run: (§1)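 For every design, apparent KD is the median of normalised binding-curve fits from its clusters. The RNA switches were transcribed on-chip from Illumina sequencing clusters and titrated with SNAP-549-labelled MS2 coat protein (twofold steps, 0.7 or 1.5 nM to 3 µM; 0.8–1.5 h to 10–20 min per step). Titrations used 100 mM Tris-HCl pH 7.5, 80 mM KCl, 4 mM MgCl2, without or with constant ligand.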

MS2 coat protein [2] = test: apparent KD of MS2 coat protein, switch OFF state (with FMN for OFF switches, without FMN for ON switches); designed switch direction (-1 OFF switch, 1 ON switch): 1; higher = weaker reporter binding; details: FMN input: 0 or 200 uM; Eterna round: R93 (includes R88 designs)
How it was run: as §1

Row | Sequence | apparent KD of MS2 coat protein (MS2 coat protein [1]) | apparent KD of MS2 coat protein (MS2 coat protein [2])
1 | ACGGUCAAGUGUGAGGAUAUCCAGGCUCCCACAUGAGGAUCACCCAUGUCUUAAAGGGCGUAAAGGGAGAAGGUACGAACGCCAC [Vesolees] | 33.2 nM | 45.3 nM
2 | AGGAAACAUGAGGAUCACCCAUGUAUAAAAAUGGAAGGAUAUACUAAGACGAAAGUCAUAGUAGAAGGUUCAAAAA [76%, Meechl, 9] | 13.1 nM | 21.1 nM
3 | AUAAAAGAAGCGAAGGAUAUCCAAAAUCCAACAUGAGGAUCACCCAUGUAAAGAAAGAAAAAAUGGGAGAAGGUCGCAAAGAAUA [73%, More Fisker Same State 2, D3, 11] | 13.5 nM | 31.3 nM
4 | AGGAAACAUGAGGAUCACCCAUGUAAAAAUAUAGGAGGAUAUGCGAAAAGAAACAAAGAAGCAGAAGGCUUAAAAA [75%, Ex sub1, 22] | 13.1 nM | 20.8 nM
5 | AGCACGUGAUUGGAGGAUAUGCAGUAAGCAACAUGAGGAUCACCCAUGUCUGACCCUGAAAACCAGCAGAAGGCCGAUACAACCA [SS2-1.7] | 10.2 nM | 13 nM
6 | UACACGCUGGCGCAGGAUAUGUCGCUGGUGACAUGAGGAUCACCCAUGUAUACCAUUGCGGUUAAGCAGAAGGGUGAGAAGCGUG [Bidibeso] | 23.5 nM | 89.8 nM
7 | CAUCAUGCGCCUAAGGAUAUGUCUCACAAGACAUGAGGAUCACCCAUGUAGAAUAAAUAAACGAUGCAGAAGGUGGAGCGCAUGA [Cexeri] | 40.2 nM | 222 nM
8 | AAGAAACAUGAGGAUCACCCAUGUGAUAAUAUGGGAGGAUAUACAAAGACGAAAGACGAAGUAGAAGGCCUAAGAA [Garnet 47] | 56.3 nM | 114 nM
9 | AGAAAUAAAUGAGAGGAUAUCCUAAAGAAAACAUGAGGAUCACCCAUGUAAAAGAAAAUAAAAUGGGAGAAGGCUCAUAAUAAAG [Starry Same State 2 (jandersonlee round 1 mod)] | 20.8 nM | 35.5 nM
10 | AAGAAACAUGAGGAUCACCCAUGUGAGAAUAUGGGAGGAUAUACAAGGACGUAAGUCAAGGUAGAAGGCCUAAGAA [Mat - Same State 1 - Meechl mod - D139] | 25.8 nM | 200 nM
11 | CAUCAUGCGCCUAAGGAUAUGUCUCACAAGACAUGAGGAUCACCCAUGUAGAAUAAAUAAAUGAUGCAGAAGGUGGAGCGCAUAC [Beusesce] | 61.9 nM | 507 nM
12 | GAAAAACAUGAGGAUCACCCAUGUGAAAACUUGGGAGGAUAUACUAAGACGAAAGUCGAGGUAGAAGGCCUAAAAG [Same State 1.4i (Mat - Mod of Eli - )] | 22.4 nM | 74.1 nM
13 | CGAAGACAUGAGGAUCACCCAUGUCGUCGUAACAGAGGAUAUGGGAACGCCAAGGGCGCAUCAGAAGGCUGAAAAC [Gediaton] | 16.2 nM | 31 nM
14 | AAAUAAAUGACUAAGGAUAUAUUAGAGAAAACAUGAGGAUCACCCAUGUAAUAAUAAAAAGGGUGAUAGAAGGUAGUCAACAAAC [74%, More Paria 4] | 132 nM | 48.8 nM
15 | AAAAAUAAAACACAGGAUAUCCAAAAGAAAACAUGAGGAUCACCCAUGUAAAGAAAAUAAAAAUGGGAGAAGGGUGAAAAUAAGA [Mat - Same State 2 - JL mod - D21] | 29.9 nM | 52.6 nM
16 | UGGAGACAUGAGGAUCACCCAUGUGAGAAGAGGCGAGGAUAUCGAAAGAAAGAAGAGAAACGAGAAGGCGCGAGAC [salish99-SS1-045] | 25.2 nM | 41.9 nM
17 | AUAAAACAUGAGGAUCACCCAUGUAGACACGAUGGAGGAUAUACUAGAUCGAAAGAUCUAGUAGAAGGCCGACGUA [Mat - Same State 1 - JL mod - D95] | 18.4 nM | 22.6 nM

Row | Sequence | apparent KD of MS2 coat protein (MS2 coat protein [1]) | apparent KD of MS2 coat protein (MS2 coat protein [2])
18 | AAUAAUUAUACGAAGGAUAUCGGUAAUUAGACAUGAGGAUCACCCAUGUAAUAUGGUUAAAUAUUCGAGAAGGUCGAGGGUGAAA [JR_SS002_Sub504] | 336 nM | 29.4 nM
19 | AGAAAACAUGAGGAUCACCCAUGUGACAAUAUGGGAGGAUAUACAAAGACGAAAGUCGAAGUAGAAGGCCUAAAGA [Garnet 52] | 26.1 nM | 69.7 nM
20 | ACAAAACAUGAGGAUCACCCAUGUAUAAAUAUAACAGGAUAUGGGACUGCCGAUUAGGCACCAGAAGGGUUUUCAC [Atearve] | 20.8 nM | 27.3 nM
21 | AAUCCAAAUAGUUAGGAUAUGGGAAUUAAGACAUGAGGAUCACCCAUGUCAUUAAAACAAGUUAACCAGAAGGGACAGGGUGAAA [JR_SS002_Sub208] | 14.7 nM | 26.6 nM
22 | AAAAAACAUGAGGAUCACCCAUGUAAAAAAAUGGGAGGAUAUACAAAAAAAAAAAAAAAAGUAGAAGGCCUGAAAA [same state 10] | 62.3 nM | 533 nM
23 | AUAAAUAAAAUCAAGGAUAUCCAAAAAAAAACAUGAGGAUCACCCAUGUAAAAGAAAAUAAAAUGGGAGAAGGUGAAAAAUAAAU [SS2 M 6] | 39.4 nM | 68 nM
24 | AACAAUCUAUCUGAGGAUAUCAUGUAAAAGACAUGAGGAUCACCCAUGUUGCAGGAAACUGCUCAUGAGAAGGCAGAUAGAUUGA [SS2: 1125] | 12.8 nM | 13.8 nM
25 | AAAAGACAUGAGGAUCACCCAUGUUAAGACGUAGGAGGAUAUGUCGUGAAAAAAGACUUGACAGAAGGCCUGUGUC [SS1 - 38] | 16 nM | 20.4 nM
26 | AGGAGACAUGAGGAUCACCCAUGUGAGAAGAGGCGAGGAUAUCGAAAGAAAGAAGAGAAACGAGAAGGCGCGAGAC [salish99-SS1-029] | 15.4 nM | 33.6 nM
27 | AGAAAACAUGAGGAUCACCCAUGUAGGAAUAUGGGAGGAUAUACAAAGACGAAAGUCAGAGUAGAAGGCCUAAGAA [salish99-SS1-087] | 24.1 nM | 81.8 nM
28 | AAAACACAUGAGGAUCACCCAUGUAUCUGGACCAUAGGAUAUCCGCACCCACUAAGGCGUGGAGAAGGGUGAGCCC [Antisoorti] | 160 nM | 124 nM
29 | AAAAGACAUGAGGAUCACCCAUGUUAAGACGUAGGAGGAUAUGUAUGGAAAACAUGCUGUACAGAAGGCCUGUGUC [SS1 - 26] | 17.8 nM | 20.8 nM
30 | GGGAGACAUGAGGAUCACCCAUGUGAAAACGUGCGAGGAUAUGAAUGGAAACCAUACUGUUCAGAAGGCGUUUGUC [Titus Petronius Secundus] | 46.5 nM | 69.2 nM
31 | AAAAUACAUGAGGAUCACCCAUGUGAAAAUAUGGGAGGAUAUACAAAAACGAAAGUAAAAGUAGAAGGCCUAAAAA [SS! 1 MT 1] | 37.8 nM | 185 nM
32 | AACAUACAUGAGGAUCACCCAUGUUCCGGCAGGUCAGGAUAUUUAUCGAAUGAGUUCUAGAAAGAAGGGACAUAAA [JR_SS001_Sub008] | 45.8 nM | 62.7 nM
33 | AAACCACAUGAGGAUCACCCAUGUAAAAAUAUGGGAGGAUAUCGGAAUAAAAUAAAGAAACGAGAAGGCCUAAAAA [59%, Flamingo, 5] | 33.7 nM | 472 nM
